# In the supplement of paper PMC7877785:
# ± gives the uncertainty stated by the source.
# Assay: self-splicing fitness, log relative to wild type (ln ratio); higher = more splicing; Tetrahymena group I intron in knt gene, E. coli kanamycin selection, DiMSum; sequences stand for … in CUCUCU…GGAGGGAAAAGUUAUCAGGCAUGCACCUGGUAGCUAGUCUUUAAACCAAUAGAUUGCAUCGGUUUAAAAGGCAAGACCGUCAAAUUGCGGGAAAGGGGUCAACAGCCGUUCAGUACCAAGUCUCAGGGGAAACUUUGAGAUGGCCUUGCAAAGGGUAUGGUAAUAAGCUGACGGACAUGGUCCUAACCACGCAGCCAAGUCCUAAGUCAACAGAUCUUCUGUUGAUAUGGAUGCAGUUCACAGACUAAAUGUCGGUCGGGGAAGAUGUAUUCUUCUCAUAAGAUAUAGUCGGACCUCUCCUUAAUGGGAGCUAGCGGAUGAAGUGAUGCAACACUGGAGCCGCUGGGAACUAAUUUGUAUGCGAAAGUAUAUUGAUUAGUUUUGGAGUACUCGUGGUCG
# How it was run: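 Pooled colonies went to amplicon sequencing on an Illumina HiSeq 2500 after six replicate transformations. The plates were LB agar with 100 μg/mL carbenicillin, 50 μM IPTG and 0.2% rhamnose, with or without 25 μg/mL kanamycin, incubated overnight at 37°C or 30°C. The E. coli BL21(DE3) library had all eight P1ex-region intron nucleotides randomised, the intron placed in the knt kanamycin-resistance gene on pET-22b(+). DiMSum fitness is the error-weighted combination of replicate fold changes, kanamycin against none, normalised to wild type.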
Sequence,self-splicing fitness (ln) (30 °C),self-splicing fitness (ln) (37 °C)
UUUCAGCAAUAUUACGAUCA,0.131 ± 0.14,0.086 ± 0.14
GAUAAGCAAUAUUACGAGUU,-2.26 ± 0.14,-1.27 ± 0.16
CGUCAGCAAUAUUACGUAGG,-0.704 ± 0.055,0.23 ± 0.086
GGAGAGCAAUAUUACGAUUG,-2.75 ± 0.26,-2.17 ± 0.43
UGCCAGCAAUAUUACGCUUU,-2.03 ± 0.079,-1.76 ± 0.074
UGGAAGCAAUAUUACGGGAG,-1.73 ± 0.37,-2.09 ± 0.25
GUGAAGCAAUAUUACGGUUU,-2.86 ± 0.084,-0.906 ± 0.11
UGAUAGCAAUAUUACGGUCC,-0.857 ± 0.1,0.318 ± 0.14
UGGAAGCAAUAUUACGCCGU,-2.99 ± 0.48,-1.87 ± 0.44
CAAAAGCAAUAUUACGCAGG,-2.51 ± 0.1,-1.24 ± 0.087
GAGGAGCAAUAUUACGCUAA,-1.86 ± 0.32,
AAGGAGCAAUAUUACGACGU,-1.88 ± 0.13,-0.122 ± 0.14
AUGUAGCAAUAUUACGGCGG,-0.915 ± 0.19,-1.14 ± 0.23
UCAUAGCAAUAUUACGUCCA,-1.07 ± 0.16,-0.442 ± 0.17
AUUGAGCAAUAUUACGUGGC,-3.45 ± 0.16,-3.69 ± 0.3
UGUGAGCAAUAUUACGUUCU,-3.79 ± 0.33,-3.12 ± 0.4
GUCAAGCAAUAUUACGGGUU,-3.26 ± 0.11,-2.31 ± 0.12
CAAUAGCAAUAUUACGAGGU,-4.24 ± 0.28,-1.93 ± 0.21
UGACAGCAAUAUUACGUGUC,-3.44 ± 0.16,-2.98 ± 0.16

Sequence,self-splicing fitness (ln) (30 °C),self-splicing fitness (ln) (37 °C)
ACGGAGCAAUAUUACGCCUA,-2.13 ± 0.28,-1.6 ± 0.27
ACAGAGCAAUAUUACGAUCA,-3.4 ± 0.28,
ACCCAGCAAUAUUACGAUAA,-2.15 ± 0.091,-0.0251 ± 0.098
GUGUAGCAAUAUUACGGGUG,-2.72 ± 0.14,-1.13 ± 0.13
GCCGAGCAAUAUUACGCGGA,-1.04 ± 0.17,0.224 ± 0.14
CCCUAGCAAUAUUACGAUGU,-3.58 ± 0.22,-2.55 ± 0.18
UGUGAGCAAUAUUACGCGAU,-3.88 ± 0.33,-3.57 ± 0.37
GUUAAGCAAUAUUACGCCUA,-0.752 ± 0.11,-0.139 ± 0.11
AGCCAGCAAUAUUACGAACA,-2.8 ± 0.24,-1.98 ± 0.33
ACCCAGCAAUAUUACGGGCG,-0.609 ± 0.055,-0.0252 ± 0.077
UCUAAGCAAUAUUACGUUGA,-1.71 ± 0.089,-1.29 ± 0.086
UGUUAGCAAUAUUACGUAAC,-1.65 ± 0.46,-1.55 ± 0.5
CCCGAGCAAUAUUACGAGUG,-3.04 ± 0.17,-1.99 ± 0.13
UACGAGCAAUAUUACGCGUA,,-2.35 ± 0.41
GGGAAGCAAUAUUACGCAUA,-2.35 ± 0.18,-1.25 ± 0.14
AGGCAGCAAUAUUACGGCAC,-0.991 ± 0.085,-0.533 ± 0.13
GACGAGCAAUAUUACGCUAG,-3.19 ± 0.19,-2.47 ± 0.18
UGCCAGCAAUAUUACGUAAG,-2 ± 0.067,-1.24 ± 0.083
CUCGAGCAAUAUUACGUUCU,-3.52 ± 0.17,-2.8 ± 0.18
